The data set concerns ATP. The data set is described as follows: switch fluorescence ratio, 500 uM ATP over buffer (Cy3 cluster intensity, sum of 5 cycles each) (fold (ratio)); higher = stronger signal-on switching upon ATP binding; sequences stand for … in TCGTCGGCAGCGTCAGATGTGTATAAGAGACAGTTTTTTTTTTTTTTTTTTTTTTTTT…TC. The note with it: aptamer strand: ATP DNA aptamer (quencher-CACCTGGGGGAGTATTGCGGAGGAAGG + anchor), 100 nM annealed; ATP concentration: 500 uM. In short, it runs like this:
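Cy3-labelled switching-strand clusters on a modified Illumina MiSeq flow-cell were annealed to 100 nM quencher-labelled ATP aptamer and imaged first in selection buffer, then after 15 min with 500 uM ATP at 22 °C. NaOH stripping and re-annealing separated each of five buffer/ATP cycles, and clusters outside 100-1000 RFU were excluded. The fluorescence ratio sums target-cycle Cy3 intensity over buffer-cycle Cy3 intensity per cluster and averages it per switch-domain sequence.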

± gives the standard deviation of the averaged measurements.
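Also: ATP exposure 15 min at 22 °C before imaging.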

Turning to TGTGAAAGTG, the switch fluorescence ratio worked out at 0.982 ± 0.041.

Take ACTGTGTTTG: the switch fluorescence ratio worked out at 0.991 ± 0.036.

As to TTGGCCGTGT, the switch fluorescence ratio was determined as 1.02 ± 0.028.

As to TTTGGGGGCT, the switch fluorescence ratio stood at 1.01 ± 0.04.

As for TCAGGATTTC, the switch fluorescence ratio amounted to 1 ± 0.036.

Consider TAAGGGACGT, for which the switch fluorescence ratio turned out to be 1.01 ± 0.034.

Take TCAGGATGGC: the switch fluorescence ratio was 1.13 ± 0.092.

With TCGGATGGTT, the switch fluorescence ratio was found to be 0.978 ± 0.024.

With TTACAGGGTA, the switch fluorescence ratio was found to be 0.981 ± 0.025.

With GGGACAGTGG, the switch fluorescence ratio amounted to 1 ± 0.015.

On to ATTTAGTTCG, for which the switch fluorescence ratio worked out at 0.9606 ± 0.0073.

Regarding GGTGTTCAGG, the switch fluorescence ratio was determined as 1.042 ± 0.0083.

Regarding TATCGGTGTT, the switch fluorescence ratio stood at 0.991 ± 0.027.

As to TTGTTGAATA, the switch fluorescence ratio turned out to be 1.003 ± 0.0016.

For the sequence TATTACGGGG, the switch fluorescence ratio is 1.005 ± 0.006.

Take GAATCGTTTC: the switch fluorescence ratio turned out to be 0.996 ± 0.053.

Turning to AAGTATAAGG, the switch fluorescence ratio worked out at 0.994 ± 0.011.

In the case of AAAAGTAAAG, the switch fluorescence ratio was determined as 0.987 ± 0.033.

Take AAGCTGTTAC: the switch fluorescence ratio was found to be 1.6 ± 0.081.

Turning to CAGGTTGCAC, the switch fluorescence ratio amounted to 0.9894 ± 0.0069.

Take GGTGTTGTG: the switch fluorescence ratio was found to be 0.974 ± 0.081.

In the case of TCCGGAGGAC, the switch fluorescence ratio was 1.86 ± 0.03.

With CGTGATATTG, the switch fluorescence ratio stood at 1.01 ± 0.017.

For the sequence TAAGTAGTTT, the switch fluorescence ratio came to 1.02 ± 0.013.

For the sequence GCATGGGGCC, the switch fluorescence ratio is 1 ± 0.011.

Take AAATCTTTCG: the switch fluorescence ratio is 1.05 ± 0.044.

On to GCGATTAAAT, for which the switch fluorescence ratio stood at 1.018 ± 0.0019.

As for GGTTTTTTAC, the switch fluorescence ratio was found to be 1 ± 0.062.

As for TTGCTTGTTG, the switch fluorescence ratio is 1.02 ± 0.034.

Regarding AATTTGATTC, the switch fluorescence ratio was determined as 1.02 ± 0.058.

GGGATTAAGG: the switch fluorescence ratio was determined as 0.999 ± 0.021.

With CCGTAAAACT, the switch fluorescence ratio was 2.46 ± 1.2.

With TTTCAAATGG, the switch fluorescence ratio came to 0.975 ± 0.028.

Regarding TCGGCCCAGG, the switch fluorescence ratio came out at 3.6 ± 1.4.

CTCAGGTATC: the switch fluorescence ratio came out at 1.11 ± 0.012.

On to GGGATAGGGG, for which the switch fluorescence ratio stood at 0.996 ± 0.024.

For the sequence TTATTATGGA, the switch fluorescence ratio is 1.02 ± 0.011.

Turning to TTAAGGGGG, the switch fluorescence ratio came out at 1.03 ± 0.012.

As to TTGAAGGCAA, the switch fluorescence ratio came out at 1.59 ± 0.076.

For GGAGGGGGGC, the switch fluorescence ratio is 1.09 ± 0.16.

As to GAACTAGGCA, the switch fluorescence ratio stood at 1 ± 0.012.

As to CTGTTCATTG, the switch fluorescence ratio worked out at 0.9807 ± 0.0037.

Take ATTTAAGTGT: the switch fluorescence ratio came to 1 ± 0.021.

Turning to ACCCGGGGCA, the switch fluorescence ratio is 1.05 ± 0.054.

For ACTACAGACG, the switch fluorescence ratio was found to be 1.11 ± 0.061.

As to TTGGAAACGT, the switch fluorescence ratio is 1.06 ± 0.067.

As to CGCTTGACTT, the switch fluorescence ratio turned out to be 0.985 ± 0.028.

With TTCGGGAGCC, the switch fluorescence ratio amounted to 1 ± 0.024.

Consider AGAGTGCTAC, for which the switch fluorescence ratio amounted to 1.04 ± 0.027.

On to TGGGGCGGTT, for which the switch fluorescence ratio came to 0.979 ± 0.024.

With TTTTTGGATG, the switch fluorescence ratio was 1.02 ± 0.057.

Turning to TATTTTTGCG, the switch fluorescence ratio was 0.97 ± 0.05.

For the sequence GACGCAGGGT, the switch fluorescence ratio was found to be 1.34 ± 0.25.

As for GCTACCTTTT, the switch fluorescence ratio was 1.06 ± 0.069.

Take AAATGCCAGG: the switch fluorescence ratio amounted to 1.08 ± 0.032.

Turning to TAATAGAAAA, the switch fluorescence ratio amounted to 1.011 ± 0.006.

Regarding GATTCGGGCG, the switch fluorescence ratio was 1 ± 0.069.

For TGGTCAGCTT, the switch fluorescence ratio was 0.994 ± 0.017.

Turning to GGTTGGGGGG, the switch fluorescence ratio amounted to 1 ± 0.036.

Consider CTTCTCTATC, for which the switch fluorescence ratio was determined as 1.01 ± 0.027.

For AGTCAAAAAA, the switch fluorescence ratio turned out to be 1.17 ± 0.3.

As to TACTACGTAA, the switch fluorescence ratio was determined as 2.27 ± 0.4.

On to CGAATGGGAC, for which the switch fluorescence ratio came out at 1.042 ± 0.007.

For the sequence TGTTTGTGCT, the switch fluorescence ratio is 0.983 ± 0.027.

CAGCGCGTCT: the switch fluorescence ratio amounted to 1.07 ± 0.06.

As for TATTGAAGAG, the switch fluorescence ratio came to 1.008 ± 0.0076.

Turning to ATGCTAAGTG, the switch fluorescence ratio worked out at 0.96412 ± 8.8e-05.

Turning to TGACCGCGGA, the switch fluorescence ratio came out at 1.11 ± 0.039.

Turning to AGTCGGCGGA, the switch fluorescence ratio was determined as 0.998 ± 0.014.

For GTGGGTGTGG, the switch fluorescence ratio came out at 1.02 ± 0.022.

Regarding TACAGGGGCC, the switch fluorescence ratio was found to be 1 ± 0.022.

Consider CTGGGTCTTT, for which the switch fluorescence ratio is 0.99 ± 0.015.

AGTCTAGATA: the switch fluorescence ratio was 1.0302 ± 0.00084.

For AAACCGGGGT, the switch fluorescence ratio amounted to 1.66 ± 0.94.

For GGGGGGCCCG, the switch fluorescence ratio is 1.35 ± 0.45.

As for ACGTACTACT, the switch fluorescence ratio turned out to be 1.3895 ± 0.00013.

Regarding ATCAACGTTA, the switch fluorescence ratio was determined as 1.07 ± 0.031.

On to GACTATGGTT, for which the switch fluorescence ratio amounted to 0.986 ± 0.051.

Regarding GCGCCTTAAA, the switch fluorescence ratio came to 0.967 ± 0.041.

Turning to TGCGGTTATG, the switch fluorescence ratio turned out to be 1.07 ± 0.051.

For the sequence GGCGGGGGCG, the switch fluorescence ratio was found to be 1.07 ± 0.024.

Turning to TGTGTTTCAA, the switch fluorescence ratio was 1.03 ± 0.013.

Consider TAGTTTGGCA, for which the switch fluorescence ratio worked out at 0.985 ± 0.037.

As to ATAGAGCTTT, the switch fluorescence ratio was determined as 1.07 ± 0.085.

As to TTAGGGCAGG, the switch fluorescence ratio was 1.06 ± 0.058.

In the case of AAAGAAAGGA, the switch fluorescence ratio is 0.977 ± 0.032.

Regarding GGCCGATGCA, the switch fluorescence ratio was determined as 1.02 ± 0.021.

As to GAGGGATTGG, the switch fluorescence ratio worked out at 1.05 ± 0.12.

Take TAGTGTCTTT: the switch fluorescence ratio amounted to 0.993 ± 0.014.

In the case of TACAGTAGCT, the switch fluorescence ratio amounted to 1.09 ± 0.011.

As to TAACCTTAGC, the switch fluorescence ratio worked out at 1.29 ± 0.041.

With TTGGTAATGT, the switch fluorescence ratio is 1.03 ± 0.016.

As to GGTATGGTCT, the switch fluorescence ratio was found to be 1.02 ± 0.022.

With AATCGGGCTG, the switch fluorescence ratio turned out to be 0.962 ± 0.042.

Consider AATAAACAGG, for which the switch fluorescence ratio amounted to 1.08 ± 0.041.

As for TCTTAGTAGT, the switch fluorescence ratio came out at 0.986 ± 0.028.

In the case of ATCGTCATGG, the switch fluorescence ratio turned out to be 1.01 ± 0.012.

On to TTGGAGGGG, for which the switch fluorescence ratio stood at 0.988 ± 0.025.

In the case of TTGGTGAAGG, the switch fluorescence ratio turned out to be 1.01 ± 0.023.

As for GCACGTGACC, the switch fluorescence ratio came to 1.47 ± 0.048.

TGGGGACAGC: the switch fluorescence ratio was 0.949 ± 0.027.

As to AGGTTACCGC, the switch fluorescence ratio amounted to 1.03 ± 0.048.

Take CAATAAGAGC: the switch fluorescence ratio stood at 1.09 ± 0.029.

For the sequence CGGTGGTTGT, the switch fluorescence ratio was found to be 0.9948 ± 0.0052.

Regarding TTTCGATTTG, the switch fluorescence ratio turned out to be 1.02 ± 0.012.

Consider CGAGACTAGT, for which the switch fluorescence ratio was determined as 1.01 ± 0.063.

Take CGGGGTTGGT: the switch fluorescence ratio was found to be 1.01 ± 0.016.

Turning to ATGGTTCGGG, the switch fluorescence ratio was found to be 0.996 ± 0.014.

For ACTGGGGTGT, the switch fluorescence ratio is 1.07 ± 0.0045.

Consider GGAAGGGCGA, for which the switch fluorescence ratio is 0.9569 ± 0.0068.

Take TGTGTTGGTT: the switch fluorescence ratio turned out to be 0.9939 ± 0.0073.

Take CGGTTTCTGG: the switch fluorescence ratio turned out to be 0.9856 ± 0.0053.

On to TGTAATGTGA, for which the switch fluorescence ratio came to 1.07 ± 0.14.

With AATAAAAGTT, the switch fluorescence ratio was found to be 1.1 ± 0.14.

As to GTTCCCTTGA, the switch fluorescence ratio was 1.02 ± 0.018.

For TGGGGGCACT, the switch fluorescence ratio is 0.982 ± 0.022.

As for TGATGAGCTC, the switch fluorescence ratio came out at 0.983 ± 0.02.

In the case of AAGGTGTAGC, the switch fluorescence ratio amounted to 0.9839 ± 0.0091.

Take TTAAGCTTAG: the switch fluorescence ratio is 1.01 ± 0.015.

Turning to ATCGGAATGT, the switch fluorescence ratio was 1.012 ± 0.0063.

The values above are taken from the supplement of paper PMC10126150.
